# Values quoted from earlier work as cited in patent US8691960B2, “Oxidoreductases for enantioselective reactions” (Duke University, priority 2012, dated 2014).
# Conditions: literature (Dang et al. 2009; Gross et al. 2010)
substance,measurement,value
HsIDH1-R132C: human cytosolic NADP+-dependent isocitrate dehydrogenase (HsIDH1) R132C cancer mutant,lowering of Vmax for neomorphic activity relative to HsIDH1-R132H,2 fold
